Data on three molecules can be found in patent US20250114467A1 (SHANGHAI FUDAN ZHANGJIANG BIO PHARMACEUTICAL, published 2025).

The target of assay [1] is T1, human DLL4 (purchased from Acro, DL4-H5227) (human, UniProt Q9NR61 27-524).
T1 construct: Bought; also called hDLL4
Description: ELISA on plate-coated human DLL4 protein (1 µg/ml), HRP goat anti-human secondary, OD 450 nm [right panel]. The procedure: (§1) The chimeric antibodies obtained in Example 6 were evaluated for their binding abilities to human DLL1 (purchased from Acro, DL1-H52H8) and DLL4 (purchased from Acro, DL4-H5227) proteins using the ELISA method. The ELISA detection method involved diluting DLL1 and DLL4 proteins with PBS to a final concentration of 1 μg/ml and coating them onto 384-well ELISA plates (purchased from Corning, 3700) at 4° C. overnight. The next day, the supernatant in the plate wells was discarded, and the wells were blocked with 80 μl of 3% milk (dissolved in PBS) for 2 hours, followed by washing three times with 80 μl of PBST (0.1% Tween20). […] After washing with 80 μl of PBST (0.1% Tween20) for five times, 25 μl of HRP-labeled goat anti-human secondary antibody (Jackson, 1:10000) was added to each well and incubated at room temperature for 1 hour, discard the supernatant, and the wells were then washed seven times with 80 μl of PBST (0.1% Tween20). After adding 25 μl of TMB chromogen solution for 10 minutes, the reaction was terminated with 2M HCl, and the absorbance value at 450 nm was measured with a Microplate reader (purchased from Biotek, Elx808). […] To assess the cross-reactivity of the antibodies with mouse and monkey DLL3, mouse DLL3-expressing plasmid pCMV3-mDLL3 (purchased from Beijing Yiqiao, MG58052-UT) and monkey DLL3-expressing plasmid pCMV3-rheDLL3 (purchased from Beijing Yiqiao, CG90919-UT) were used to construct overexpressing cell lines. The construction of overexpressing cells was as described in Examples 2-3. The binding abilities of the chimeric antibodies to these cells were determined by flow cytometry to assess the cross-reactivity of the antibodies with different species.
(An ELISA detects its analyte on a solid surface through an enzyme-linked reagent.)

Assay [2] addresses T2, recombinant DLL3 protein (purchased from ACRO, DL3-H5255) (human, UniProt Q9NYJ7 27-479).
T2 construct: Bought; also called human DLL3 protein; hDLL3
T2 sequence (looked up): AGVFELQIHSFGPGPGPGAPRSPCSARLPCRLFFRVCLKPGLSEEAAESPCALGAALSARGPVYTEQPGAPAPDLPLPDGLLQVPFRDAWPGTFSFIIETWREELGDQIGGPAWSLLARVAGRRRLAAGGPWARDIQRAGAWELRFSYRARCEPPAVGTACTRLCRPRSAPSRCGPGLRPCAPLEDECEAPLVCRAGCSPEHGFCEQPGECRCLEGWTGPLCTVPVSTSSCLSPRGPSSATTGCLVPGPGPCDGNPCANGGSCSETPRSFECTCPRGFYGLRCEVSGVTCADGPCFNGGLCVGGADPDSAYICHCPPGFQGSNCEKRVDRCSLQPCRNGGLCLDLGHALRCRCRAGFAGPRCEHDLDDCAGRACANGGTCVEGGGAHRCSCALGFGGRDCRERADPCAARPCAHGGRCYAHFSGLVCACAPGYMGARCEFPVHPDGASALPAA
The experiment in a line: ELISA, plate-coated human DLL3 protein 1 µg/ml. An excerpt:
Six 6-week-old SPF grade female Balb/C mice (purchased from Shanghai Jihui Laboratory Animal Care Co., Ltd.) were selected and randomly divided into two groups, A and B. They were immunized with recombinant DLL3 protein (purchased from ACRO, DL3-H5255) at two-week intervals. Freund's complete adjuvant was used for the first immunization and Freund's incomplete adjuvant was used for subsequent immunizations. On days 35 and 49, blood samples were collected from the mice via orbital bleeding, and the immune serum titers of the mice were detected using conventional methods of ELISA and Flow Cytometry (FACS). ELISA detection method: DLL3 protein was diluted with PBS to a concentration of 1 μg/ml. 100 μl/well was added to a 96-well ELISA plate and incubated overnight at 4° C. The next day, the supernatant was discarded, and each well was blocked with 200 μl of 2% milk in PBS for 2 hours. After discarding the blocking solution, the wells were washed 3 times with 200 μl of PBST (0.1% Tween20). The serum to be detected was pre-diluted 100 times as the starting concentration, followed by a 3-fold gradient dilution across 11 concentrations, with 100 μl added to each well of the ELISA plate. After incubating at room temperature for 1 hour, the supernatant was discarded and the wells were washed 5 times with 200 μl of PBST (0.1% Tween20). Then, 100 μl of HRP-labeled goat anti-mouse secondary antibody (Jackson, 1:10000) was added and incubated at room temperature for 1 hour. After discarding the supernatant, the wells were washed 7 times with 200 μl of PBST (0.1% Tween20). 100 μl of TMB chromogen solution was added to each well for 10 minutes. The reaction was terminated with 2M HCl, and absorbance value at 450 nm was read with a Microplate Reader (purchased from Biotek, Elx808).
For the hybridoma clones with good binding and internalization activities identified in Example 5, the heavy chain variable region sequences were synthesized and cloned into the pFUSEss-CHIg-hG1 vector (purchased from InvivoGen, catalog number pfusess-hchgl) comprising the amino acid sequence of the human antibody IgG1 heavy chain constant region by homologous recombination.

The target in assay [3] is T3, human DLL3, His tag (acrobiosystems, DL3-H52H4) (human, UniProt Q9NYJ7 27-492).
T3 construct: Bought; also called human DLL3 protein; free DLL3; not shown: His tag
T3 sequence (looked up): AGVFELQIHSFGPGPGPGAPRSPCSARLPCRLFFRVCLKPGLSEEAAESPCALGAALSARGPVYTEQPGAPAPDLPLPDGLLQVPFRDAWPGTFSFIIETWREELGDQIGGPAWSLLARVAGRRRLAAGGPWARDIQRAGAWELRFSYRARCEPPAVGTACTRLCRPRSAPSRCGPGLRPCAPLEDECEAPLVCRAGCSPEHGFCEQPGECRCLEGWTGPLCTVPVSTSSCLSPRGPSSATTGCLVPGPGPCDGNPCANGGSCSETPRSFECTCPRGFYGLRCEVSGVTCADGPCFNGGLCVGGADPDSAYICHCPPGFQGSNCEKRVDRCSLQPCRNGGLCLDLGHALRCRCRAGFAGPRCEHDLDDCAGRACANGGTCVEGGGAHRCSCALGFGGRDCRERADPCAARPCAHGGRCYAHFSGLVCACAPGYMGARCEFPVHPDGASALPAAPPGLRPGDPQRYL
Description: BLI (Octet 96e), antibody on sensor, DLL3-His 100-3.13 nM in solution. The procedure:
To assess the affinity of antibodies for human DLL3 protein, this study employed the BLI method to detect the binding kinetics curves of immobilized antibodies with free DLL3. The method was conducted according to the instrument's user manual (supplier: Fortebio, equipment model: Octet 96e). Briefly, AMC sensors were equilibrated for 60 s with Loading Buffer/Sample dilution buffer (1×PBS, pH7.4, with 0.1% BSA and 0.02% Tween-20) to obtain Baseline 1. The antibodies to be detected were diluted with Loading Buffer to a concentration of 10 ug/ml and bound to the equilibrated sensors, after which the sensors were re-equilibrated with Loading Buffer to obtain Baseline 2. The antibody-loaded sensors were then placed in human DLL3, His tag (supplier: acrobiosystems, catalog number: DL3-H52H4) diluted with Sample Dilution Buffer to concentrations ranging from 100 to 3.13 nM for 90 s to obtain the antibody-protein binding curve. Then, the sensors combined with antigen were placed in the Sample Dilution Buffer again and dissociated for 180 s, and the dissociation curve was obtained. The k-on and k-off values of the antibody-protein binding were calculated based on the binding and dissociation curves, and the KD values were calculated, with the results shown in Table 4.
(In general: Biolayer interferometry detects binding as a change in optical thickness at a sensor tip.)

For assay [4], the target named is T4, human DLL3 (hDLL3) on cells (human, UniProt Q9NYJ7 27-618).
T4 construct: whole, on cells; V5-tagged); also called DLL3 on SHP-77 cells (endogenous); hDLL3 on HEK293 cells
T4 sequence (looked up): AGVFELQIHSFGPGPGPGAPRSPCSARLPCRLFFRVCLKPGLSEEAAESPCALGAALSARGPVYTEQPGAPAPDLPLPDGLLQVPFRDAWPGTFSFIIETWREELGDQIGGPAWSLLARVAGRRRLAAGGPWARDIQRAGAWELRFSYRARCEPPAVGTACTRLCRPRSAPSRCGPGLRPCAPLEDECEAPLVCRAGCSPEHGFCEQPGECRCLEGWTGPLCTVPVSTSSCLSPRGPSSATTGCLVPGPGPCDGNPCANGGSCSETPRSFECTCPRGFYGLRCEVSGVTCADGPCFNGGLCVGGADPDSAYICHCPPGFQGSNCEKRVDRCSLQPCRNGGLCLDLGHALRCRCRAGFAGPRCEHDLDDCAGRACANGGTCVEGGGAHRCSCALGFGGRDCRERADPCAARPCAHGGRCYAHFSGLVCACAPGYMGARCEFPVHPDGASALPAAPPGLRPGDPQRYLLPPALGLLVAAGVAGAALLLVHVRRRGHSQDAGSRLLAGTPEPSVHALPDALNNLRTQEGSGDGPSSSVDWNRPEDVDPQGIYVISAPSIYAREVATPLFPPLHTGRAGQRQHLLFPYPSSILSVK
The experiment in a line: flow cytometry on SHP-77 cells, 1 µg/ml antibody, kept on ice (0 H of the internalization assay). The procedure:
The SHP-77 cells were used to detect the internalization activity of the hybridoma antibodies obtained in Example 3-3 by using the FACS method described in Example 3-1. The detecting method is briefly described as follows: Six aliquots of 5×10⁵ SHP-77 cells each were prepared in a 96-well V-bottom plate and centrifuged at 1500 r/min for 1 minute, after which the supernatant was discarded. 1 μg/ml of the saturated antibody to be detected was added to each well (200 μL per well) and incubated on ice for 30 minutes. Then, 150 μL of PBS was added to each well, followed by centrifugation at 1500 r/min for 1 minute, and the supernatant was discarded. This step was repeated four times. The cells were resuspended in 200 μl of PBS, and one aliquot was incubated at 37° C. for various durations: 5 hours, 3 hours, 1 hour, 0.5 hours, and 15 minutes. The remaining aliquot was kept on ice. After incubation, all samples were centrifuged at 4° C., 1500 r/min for 1 minute, and the supernatant was discarded. APC-labeled goat anti-mouse IgG (Jackson, catalog number 109-605-098, diluted 1:800 in PBS) was added to each well (50 μL per well) and incubated on ice for 30 minutes. The cells were then washed four times by resuspending in 150 μL of PBS, followed by centrifugation at 1500 r/min for 1 minute and discarding the supernatant. Finally, the cells were resuspended in 100 μL of PBS and analyzed using a CytoFLEX flow cytometer (purchased from Beckman).
(In general: In flow cytometry, cells or beads pass a laser one at a time.)

Assay [5] addresses T5, human DLL1 (purchased from Acro, DL1-H52H8) (human, UniProt O00548 18-540).
T5 construct: Bought; also called hDLL1
T5 sequence (looked up): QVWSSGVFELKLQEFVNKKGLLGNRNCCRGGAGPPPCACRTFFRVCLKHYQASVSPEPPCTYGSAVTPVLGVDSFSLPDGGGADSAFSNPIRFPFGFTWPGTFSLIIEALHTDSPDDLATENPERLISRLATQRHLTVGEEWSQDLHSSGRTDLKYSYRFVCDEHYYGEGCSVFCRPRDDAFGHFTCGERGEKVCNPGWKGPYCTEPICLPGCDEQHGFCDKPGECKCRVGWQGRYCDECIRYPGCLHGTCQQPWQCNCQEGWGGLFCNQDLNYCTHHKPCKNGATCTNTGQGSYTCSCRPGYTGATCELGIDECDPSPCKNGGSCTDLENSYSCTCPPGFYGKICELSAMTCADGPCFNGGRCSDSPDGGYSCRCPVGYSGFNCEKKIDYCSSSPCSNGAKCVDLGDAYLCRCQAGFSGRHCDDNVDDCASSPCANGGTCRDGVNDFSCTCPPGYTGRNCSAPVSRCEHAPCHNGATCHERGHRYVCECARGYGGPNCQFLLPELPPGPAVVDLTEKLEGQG
The experiment in a line: ELISA on plate-coated human DLL1 protein (1 µg/ml), HRP goat anti-human secondary, OD 450 nm [left panel]. How it is done:
as §1

T1 sequence (Q9NR61 27-524 limits assumed): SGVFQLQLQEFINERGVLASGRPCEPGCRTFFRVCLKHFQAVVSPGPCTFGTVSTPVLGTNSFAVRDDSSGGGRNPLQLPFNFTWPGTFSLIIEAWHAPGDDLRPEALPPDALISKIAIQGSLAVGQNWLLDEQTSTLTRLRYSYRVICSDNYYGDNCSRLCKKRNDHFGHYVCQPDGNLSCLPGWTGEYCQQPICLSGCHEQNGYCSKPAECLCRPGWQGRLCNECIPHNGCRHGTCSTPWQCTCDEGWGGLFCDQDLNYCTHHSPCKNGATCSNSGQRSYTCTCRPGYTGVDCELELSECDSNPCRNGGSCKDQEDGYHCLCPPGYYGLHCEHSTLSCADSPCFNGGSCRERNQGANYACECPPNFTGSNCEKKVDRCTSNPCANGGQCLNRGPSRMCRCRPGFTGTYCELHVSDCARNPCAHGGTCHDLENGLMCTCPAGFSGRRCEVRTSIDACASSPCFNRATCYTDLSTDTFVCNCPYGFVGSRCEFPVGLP

B1: ch36H10 (antibody, human IgG1, kappa, V domains shown)
VH: EVQFQQSGPELVKPGASVKISCKASGYTFTDYNIHWVRQSQGKSLEWIGLIYPFNGGIVYNQKFKSKATLTVDNSSTSAYMELRSLSSEDSAVYFCARLNWEGYWGQGSTLIVSS
VL: DIKMTQSPSSIYAFLGERVTITCKASQDINSYLSWFQQKPGKSPKTLIYRANRLVGGVPSRFSGSGSGQDYSLTISSLEYEDVGDYYCLQYAEFPYTFGGGTKLEIKR
notes: Chimeric: murine variable regions on human IgG1 heavy and kappa light constant regions; also called chimeric antibody 36H10
As for B1, the binding result in assay [1] was “no binding (tested: 20 µg/ml)”. The EC50 – broadly, the concentration that produces a half-maximal response – in assay [2] was found to be 0.0159 µg/mL. Besides, in assay [3], the Kd (commonly the equilibrium constant for the complex coming apart) worked out at 99.1 pM; the koff (usually the first-order rate constant of dissociation) turned out to be 0.000168 s⁻¹; the kon (in general, the rate constant with which the complex forms) turned out to be 1.69e+06 M⁻¹ s⁻¹.

B2: 36H10 (antibody, V domains shown)
VH: B1 VH
VL: DIKMTQSPSSIYAFLGERVTITCKASQDINSYLSWFQQKPGKSPKTLIYRANRLVGGVPSRFSGSGSGQDYSLTISSLEYEDVGDYYCLQYAEFPYTFGGGTKLEIK
notes: Murine hybridoma monoclonal antibody; also called hybridoma antibody clone 36H10
For the molecule B2, the “fluorescence value at 0 H” value in assay [4] came out at 36000.

B3: FDA031 (antibody, human IgG1, kappa, V domains shown)
VH: QVQLVQSGAEVKKPGASVKVSCKASGYTFTRYWIHWIRQAPGQGLEWMGYINPTTVYTEFNQNFKDRVTMTRDTSTSTVYMELSSLRSEDTAVYYCARGGSNFFDYWGQGTTVTVSS
VL: AIQLTQSPSSLSASVGDRVTITCRASENIYYNLAWYQQKPGKAPKLLIYTANSLEDGVPSRFSGSGSGTDFTLTISSLQPEDFATYFCKQAYDVPPTFGGGTKLEIKR
notes: also called anti-DLL3 antibody FDA031
Take B3: in assay [2], the EC50 was 0.0233 µg/mL. Further, the binding result in assay [5] is “no binding (tested: 20 µg/ml)”.
